B1: Lipopolysaccharide-induced tumor necrosis factor-alpha factor (Homo sapiens), Q99732 (parent)
chain: MSVPGPYQAATGPSSAPSAPPSYEETVAVNSYYPTPPAPMPGPTTGLVTGPDGKGMNPPSYYTQPAPIPNNNPITVQTVYVQHPITFLDRPIQMCCPSCNKMIVSQLSYNAGALTWLSCGSLCLLGCIAGCCFIPFCVDALQDVDHYCPNCRALLGTYKRL

The variants in the assay derive from B1. The note with it: with nedd4_human NEDD4, P46934.
Sequence of nedd4_human NEDD4, P46934 (P46934 whole entry): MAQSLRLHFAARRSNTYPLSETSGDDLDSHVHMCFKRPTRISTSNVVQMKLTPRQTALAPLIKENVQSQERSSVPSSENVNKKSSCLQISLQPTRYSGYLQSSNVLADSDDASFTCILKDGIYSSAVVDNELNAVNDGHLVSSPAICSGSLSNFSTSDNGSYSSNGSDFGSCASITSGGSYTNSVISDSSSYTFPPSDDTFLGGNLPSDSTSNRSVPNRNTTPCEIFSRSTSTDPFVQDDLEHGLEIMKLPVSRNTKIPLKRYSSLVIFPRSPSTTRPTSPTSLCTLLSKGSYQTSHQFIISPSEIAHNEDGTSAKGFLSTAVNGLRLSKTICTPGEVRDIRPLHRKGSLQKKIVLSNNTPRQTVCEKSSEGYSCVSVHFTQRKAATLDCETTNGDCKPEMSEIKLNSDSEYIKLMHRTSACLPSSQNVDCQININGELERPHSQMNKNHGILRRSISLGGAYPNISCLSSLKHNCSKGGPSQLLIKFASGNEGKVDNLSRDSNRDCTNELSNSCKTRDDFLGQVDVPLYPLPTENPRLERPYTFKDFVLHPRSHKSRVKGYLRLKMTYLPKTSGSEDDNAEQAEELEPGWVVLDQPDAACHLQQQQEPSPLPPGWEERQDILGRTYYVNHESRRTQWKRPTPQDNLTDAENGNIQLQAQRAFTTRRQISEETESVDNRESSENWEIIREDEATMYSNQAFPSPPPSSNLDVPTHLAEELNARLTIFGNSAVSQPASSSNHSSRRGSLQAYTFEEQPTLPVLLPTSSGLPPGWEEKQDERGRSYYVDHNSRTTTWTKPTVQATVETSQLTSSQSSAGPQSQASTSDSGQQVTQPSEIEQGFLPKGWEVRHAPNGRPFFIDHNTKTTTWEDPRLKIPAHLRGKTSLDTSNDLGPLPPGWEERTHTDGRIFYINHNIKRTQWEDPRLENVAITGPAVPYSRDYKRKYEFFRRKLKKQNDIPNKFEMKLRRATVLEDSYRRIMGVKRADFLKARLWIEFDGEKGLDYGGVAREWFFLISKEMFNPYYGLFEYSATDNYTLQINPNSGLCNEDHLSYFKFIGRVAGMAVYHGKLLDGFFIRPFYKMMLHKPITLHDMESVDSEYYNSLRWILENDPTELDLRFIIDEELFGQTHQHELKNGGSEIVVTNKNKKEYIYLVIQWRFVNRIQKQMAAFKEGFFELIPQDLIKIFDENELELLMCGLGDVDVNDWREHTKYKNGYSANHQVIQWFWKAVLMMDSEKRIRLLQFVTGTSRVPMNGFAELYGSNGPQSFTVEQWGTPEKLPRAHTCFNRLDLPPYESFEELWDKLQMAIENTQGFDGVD
Consider Y61A, for which the “effect of a mutation on the interaction” value is “with no effect”.

In the case of Y23A;Y61A, the “effect of a mutation on the interaction” value is reported as “disrupting interaction strength”.

As to Y23A, the “effect of a mutation on the interaction” value was “disrupting interaction strength”.

The values are drawn from IntAct's records for PubMed 27927196.
